This note sets out measurements from paper PMC8885411, “Engineered ACE2 decoy mitigates lung injury and death induced by SARS-CoV-2 variants” (Nature Chemical Biology, 2022).

For this experiment, the target named is T1, SARS-CoV-1 S protein with C-terminal C9 tag (SARS-CoV-1 (Severe acute respiratory …, UniProt P59594)).
T1 construct: also called S protein of SARS-CoV-1; SARS-spike
Put plainly: flow cytometry on cells. Conditions: one partner purified. (In flow cytometry, cells or beads pass a laser one at a time.)

B1: REGN10933 (antibody, V domains shown)
VH: QVQLVESGGGLVKPGGSLRLSCAASGFTFSDYYMSWIRQAPGKGLEWVSYITYSGSTIYYADSVKGRFTISRDNAKSSLYLQMNSLRAEDTAVYYCARDRGTTMVPFDYWGQGTLVTVSS
VL: DIQMTQSPSSLSASVGDRVTITCQASQDITNYLNWYQQKPGKAPKLLIYAASNLETGVPSRFSGSGSGTDFTFTISGLQPEDIATYYCQQYDNLPLTFGGGTKVEIK
notes: also called casirivimab
Turning to B1, the binding result was “no binding”.

B2: REGN10987 (antibody, V domains shown)
VH: QVQLVESGGGVVQPGRSLRLSCAASGFTFSNYAMYWVRQAPGKGLEWVAVISYDGSNKYYADSVKGRFTISRDNSKNTLYLQMNSLRTEDTAVYYCASGSDYGDYLLVYWGQGTLVTVSS
VL: QSALTQPASVSGSPGQSITISCTGTSSDVGGYNYVSWYQQHPGKAPKLMIYDVSKRPSGVSNRFSGSKSGNTASLTISGLQSEDEADYYCNSLTSISTWVFGGGTKLTVL
notes: also called imdevimab
Consider B2, for which the binding result is listed as “no binding”.
